From patent US20220251207A1

Biological target: human hCTLA4-RFP protein on 293 cells (human) (UniProt P16410)
Test: flow cytometry of cell conjugates; 293-hCTLA4-RFP cells with 100 nM antibody, then five times as many 293-B7-1-GFP cells (B7-1 is the ligand tested for blocking); lower right quadrant (RFP+GFP-) 6.13

Chain of human hCTLA4-RFP protein on 293 cells (human) (P16410 36-223): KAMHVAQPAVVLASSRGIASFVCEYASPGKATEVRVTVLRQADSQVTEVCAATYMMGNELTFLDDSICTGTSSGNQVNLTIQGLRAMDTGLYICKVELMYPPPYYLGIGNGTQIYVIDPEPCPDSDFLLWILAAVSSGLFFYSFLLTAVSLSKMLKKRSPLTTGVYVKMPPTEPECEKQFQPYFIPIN

% RFP+GFP+ events (upper right quadrant): 26.5%
Substance: hIgG1 (antibody)
